Results: ChEMBL document CHEMBL1129993, “Synthesis and biological characterization of 1,4,5,6-tetrahydropyrimidine and 2-amino-3,4,5,6-tetrahydropyridine derivatives as selective m1 agonists” (J Med Chem, 1997)

Experiments:
[1] = substrate: COC(=O)C1CN=CNC1; conditions: Mus musculus; A9L
[2] = substrate: C[N+](C)(C)CCOC(N)=O; conditions: Mus musculus; A9L

B1: Muscarinic acetylcholine receptor M2 (Mus musculus), Q9ERZ4 (protein)
chain: MNNSTNSSNNGLAITSPYKTFEVVFIVLVAGSLSLVTIIGNILVMVSIKVNRHLQTVNNYFLFSLACADLIIGVFSMNLYTLYTVIGYWPLGPVVCDLWLALDYVVSNASVMNLLIISFDRYFCVTKPLTYPVKRTTKMAGMMIAAAWVLSFILWAPAILFWQFIVGVRTVEDGECYIQFFSNAAVTFGTAIAAFYLPVIIMTVLYWHISRASKSRIKKEKKEPVANQDPVSPSLVQGRIVKPNNNNMPGGDGGLEHNKIQNGKAPRDGGTENCVQGEEKESSNDSTSVSAVASNMRDDEITQDENTVSTSLGHSKDDNSRQTCIKIVTKTQKGDACTPTSTTVELVGSSGQNGDEKQNIVARKIVKMTKQPAKKKPPPSREKKVTRTILAILLAFIITWAPYNVMVLINTFCAPCIPNTVWTIGYWLCYINSTINPACYALCNATFKKTFKHLLMCHYKNIGATR
Which Km [1] does the source give for B1 here?
Its Km is 0.014 µM.

What about the Km [2] of the same protein?
Its Km is 0.046 µM.
